In patent US20140286859A1 (published 2014):
Where “and” joins values, the source holds several entries; their conditions need not be identical. Equal values may be shown once.

Biological target: recombinant soluble PSMA (rsPSMA) (human, UniProt Q04609 44-750)
Sequence (Q04609 44-750): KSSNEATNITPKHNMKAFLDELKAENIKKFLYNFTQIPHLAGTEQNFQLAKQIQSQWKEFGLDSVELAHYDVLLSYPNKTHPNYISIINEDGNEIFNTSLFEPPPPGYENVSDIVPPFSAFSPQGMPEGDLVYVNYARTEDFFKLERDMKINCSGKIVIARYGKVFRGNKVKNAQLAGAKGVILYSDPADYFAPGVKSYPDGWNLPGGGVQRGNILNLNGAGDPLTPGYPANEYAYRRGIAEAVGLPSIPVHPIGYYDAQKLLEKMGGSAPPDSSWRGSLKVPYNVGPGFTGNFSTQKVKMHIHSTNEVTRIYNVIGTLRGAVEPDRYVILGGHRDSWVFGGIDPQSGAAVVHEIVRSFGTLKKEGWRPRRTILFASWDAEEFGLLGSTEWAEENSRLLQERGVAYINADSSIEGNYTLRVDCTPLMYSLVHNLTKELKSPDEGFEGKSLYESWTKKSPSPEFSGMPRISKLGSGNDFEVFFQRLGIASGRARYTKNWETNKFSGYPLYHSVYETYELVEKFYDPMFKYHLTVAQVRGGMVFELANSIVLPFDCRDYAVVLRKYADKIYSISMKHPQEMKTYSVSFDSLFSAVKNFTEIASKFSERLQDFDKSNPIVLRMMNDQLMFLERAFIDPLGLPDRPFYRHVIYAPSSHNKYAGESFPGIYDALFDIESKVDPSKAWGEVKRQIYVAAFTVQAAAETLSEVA

B1: PSMA 10.3 (antibody, V domains shown)
VH: QEQLVESGGGVVQPGRSLRLSCAASGFTFSTYGMHWVRQAPGKGLEWVAVTWHDGSNKYYADSVKGRFTISRDNSKNTLYLQMNSLRAEDTAVYYCARGGVGATYYYYYGMDVWGQGTTVTVSS
VL: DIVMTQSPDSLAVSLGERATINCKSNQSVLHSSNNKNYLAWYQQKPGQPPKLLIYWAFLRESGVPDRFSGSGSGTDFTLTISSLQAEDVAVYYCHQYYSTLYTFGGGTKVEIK
koff: 6.32e-05 s⁻¹ and 6.43e-05 s⁻¹
